The assay concerns the target T1, His-tagged human recombinant FcγRIIb (Sino Biological, cat. no. 10259-H27H-B) (human, UniProt P31994 43-217).
T1 construct: also called FcγRII2b [sic]
T1 sequence (looked up): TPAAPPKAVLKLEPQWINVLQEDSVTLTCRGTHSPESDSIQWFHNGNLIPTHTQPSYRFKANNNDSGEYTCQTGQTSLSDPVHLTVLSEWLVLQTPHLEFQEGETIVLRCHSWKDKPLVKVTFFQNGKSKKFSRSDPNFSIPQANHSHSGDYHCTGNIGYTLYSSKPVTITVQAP
The experiment in a line: SPR, His-tagged FcγR captured on anti-His chip, antibody injected. On the procedure:
Biacore Series S Sensor Chips CM5 (Cytiva, cat. no. 29104988) were covalently coated with anti-His antibody using amine-coupling and His capture kits (Cytiva, cat. no. BR100050 and cat. no. 29234602) according to the manufacturer's instructions. […] After three start-up cycles of HBS-EP+ buffer, antibody samples were injected for 12 cycles per sample to generate binding curves using antibody concentration ranges of 0 to 3,000 nM for FcγRIa and 0 to 10,000 nM for the other FcγRs.
Dissociation from the anti-His-coated surface was performed by regeneration of the surface using 10 mM Glycine-HCl pH 1.5 (Cytiva, cat. no. BR100354).
(Surface plasmon resonance follows binding to a sensor surface in real time, without labels.)

The record followed here is US20240400703A1 (Genmab, published 2024).

B1: IgG1-CD134-003-HC6LC2-P329R-E345R (antibody)
heavy: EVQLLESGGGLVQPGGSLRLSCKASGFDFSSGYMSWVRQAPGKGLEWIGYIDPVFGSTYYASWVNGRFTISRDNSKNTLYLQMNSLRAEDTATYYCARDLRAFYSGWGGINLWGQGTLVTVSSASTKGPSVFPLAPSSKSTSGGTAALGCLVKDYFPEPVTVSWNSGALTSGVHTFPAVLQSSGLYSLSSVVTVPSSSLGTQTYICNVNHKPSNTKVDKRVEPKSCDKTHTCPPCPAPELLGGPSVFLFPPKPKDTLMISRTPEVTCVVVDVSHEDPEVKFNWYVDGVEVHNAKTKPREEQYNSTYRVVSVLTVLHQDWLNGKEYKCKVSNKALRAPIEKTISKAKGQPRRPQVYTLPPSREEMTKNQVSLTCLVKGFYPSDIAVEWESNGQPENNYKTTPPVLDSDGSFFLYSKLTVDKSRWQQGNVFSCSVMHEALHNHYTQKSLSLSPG
light: AAVLTQSPSSLSASVGDRVTITCQSSQIVVNNNFLSWYQQKPGKAPKLLIYDASNLASGVPDRFSGSGSGTDFTFTISSLQPEDIATYYCLGGYDDDAENAFGGGTKVEIKRTVAAPSVFIFPPSDEQLKSGTASVVCLLNNFYPREAKVQWKVDNALQSGNSQESVTEQDSKDSTYSLSSTLTLSKADYEKHKVYACEVTHQGLSSPVTKSFNRGEC
notes: humanized; human IgG1 with P329R and E345R (Eu numbering), kappa; also called IgG1-CD134-003-HC6LC2-RR
Take B1: the binding result is on record as “no binding (tested: about 5,000 nM)”.
